According to patent US20060018911A1:

Assays:
[1] = molecular target: purified IgM antibody (38C13); experiment: antibody microarray, printed S1C5, goat anti-mouse IgM HRP chemiluminescence
[2] = molecular target: 38C13 IgM in 38C13 cell extract; experiment: antibody microarray, printed S1C5, cell extract, goat anti-mouse IgM HRP chemiluminescence

lowest IgM concentration giving signal [1]: 0.1 µg/mL | lowest spotted antibody concentration giving signal [1]: 25 µg/mL | highest extract dilution giving signal (fold dilution (1:x)) [2]: 2000 | lowest printed antibody concentration giving signal [2]: 50 µg/mL
Substance: S1C5 anti-idiotype monoclonal antibody (anti-IgM antibody)
